From article PMC11183071 (Communications Biology, 2024) come the findings set out here.

Experiment [1] has as its target T1, Clostridium perfringens enterotoxin with C-terminal decahistidine tag (CpE-His10) (Clostridium perfringens, UniProt P01558 1-319).
T1 sequence: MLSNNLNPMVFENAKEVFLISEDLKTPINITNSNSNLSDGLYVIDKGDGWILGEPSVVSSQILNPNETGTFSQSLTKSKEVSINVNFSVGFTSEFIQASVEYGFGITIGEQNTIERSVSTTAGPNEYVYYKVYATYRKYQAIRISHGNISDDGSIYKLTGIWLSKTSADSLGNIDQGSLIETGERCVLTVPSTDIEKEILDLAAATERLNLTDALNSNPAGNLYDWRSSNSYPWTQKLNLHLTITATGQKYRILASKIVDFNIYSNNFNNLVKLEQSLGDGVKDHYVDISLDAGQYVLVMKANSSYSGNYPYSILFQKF
Nature of the experiment: BLI. As to conditions: both partners purified.

In experiment [2] the target is T2, pre-formed non-detergent hsCLDN-4/cCpE-His10 complex (hsCLDN-4 in amphipol A8-35 or in nanodiscs) (Homo sapiens CLDN4; Clostridium …).
T2 chain 1: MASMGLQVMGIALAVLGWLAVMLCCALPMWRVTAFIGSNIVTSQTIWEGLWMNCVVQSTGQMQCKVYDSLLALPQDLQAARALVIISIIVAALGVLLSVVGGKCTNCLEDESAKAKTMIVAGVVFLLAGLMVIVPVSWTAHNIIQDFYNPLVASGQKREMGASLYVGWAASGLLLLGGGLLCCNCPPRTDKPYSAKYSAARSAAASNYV
T2 chain 2: not shown
Nature of the experiment: BLI. As to conditions: both partners purified.

Experiment [3] concerns the target T3, pre-formed hsCLDN-3-Biotin/CpE-His10 complex (Homo sapiens CLDN3; Clostridium …, UniProt O15551;P01558).
T3 construct: source: pre-formed from the purified proteins (same method as the cCpE complexes)
Nature of the experiment: BLI. The note with it: both partners purified.

For experiment [4], the target named is T4, C-terminal domain of Clostridium perfringens enterotoxin with decahistidine tag (cCpE-His10) (Clostridium perfringens, UniProt P01558).
T4 construct: source: insect cells, purified (NiNTA, eluted with imidazole); not shown: His10, C-terminal, kept
Nature of the experiment: BLI. As to conditions: both partners purified.

Experiment [5] has as its target C-terminal domain of Clostridium perfringens enterotoxin (cCpE), tagless (Clostridium perfringens, UniProt P01558).
Experiment [6] addresses T5, hsCLDN-4/cCpE complex (tagless proteins) (Homo sapiens CLDN4; Clostridium …).
T5 chain 1: T2 chain 1
T5 chain 2: not shown

What is called Kd is the concentration at which binding is half-saturated. Read a high Kd as lower affinity.

B1: human claudin-4, biotinylated (hsCLDN-4-Biotin) (natural protein)
chain: T2 chain 1
modifications: biotin (NHS-PEG4-Biotin) on the N-terminal amine
In experiment [1], B1 displayed a dissociation constant (Kd) of 7.3 ± 0.2 nM.

B2: COP-1 (CpE Obstructing Protein 1), synthetic antibody fragment (Fab, V domains shown)
VH: EVQLVESGGGLVQPGGSLRLSCAASGFNFSSSYIHWVRQAPGKGLEWVASISSSSGSTSYADSVKGRFTISADTSKNTAYLQMNSLRAEDTAVYYCARWFHPWWWWEYLFRGAIDYWGQGTLVTVSS
VL: DIQMTQSPSSLSASVGDRVTITCRASQSVSSAVAWYQQKPGKAPKLLIYSASSLYSGVPSRFSGSRSGTDFTLTISSLQPEDFATYYCQQSSSSLITFGQGTKVEIK
notes: also called sFab
Molecule B2 returned a Kd in experiment [2] of less than 100 nM. The figures for the binding result in experiment [3] and in experiment [4] were “no binding (tested: 250 nM COP-1)” and “no binding (tested: 0–750 nM COP-1)”, respectively.

B3: mouse claudin-3, biotinylated (mmCLDN-3-Biotin) (natural protein)
chain: MSMGLEITGTSLAVLGWLCTIVCCALPMWRVSAFIGSSIITAQITWEGLWMNCVVQSTGQMQCKMYDSLLALPQDLQAARALIVVSILLAAFGLLVALVGAQCTNCVQDETAKAKITIVAGVLFLLAALLTLVPVSWSANTIIRDFYNPLVPEAQKREMGAGLYVGWAAAALQLLGGALLCCSCPPRDKYAPTKILYSAPRSTGPGTGTGTAYDRKDYV
modifications: biotin (NHS-PEG4-Biotin) on the N-terminal amine
B3 yielded a Kd in experiment [1] of 16.1 ± 0.2 nM.

B4: human claudin-9, biotinylated (hsCLDN-9-Biotin) (natural protein)
chain: MASTGLELLGMTLAVLGWLGTLVSCALPLWKVTAFIGNSIVVAQVVWEGLWMSCVVQSTGQMQCKVYDSLLALPQDLQAARALCVIALLLALLGLLVAITGAQCTTCVEDEGAKARIVLTAGVILLLAGILVLIPVCWTAHAIIQDFYNPLVAEALKRELGASLYLGWAAAALLMLGGGLLCCTCPPPQVERPRGPRLGYSIPSRSGASGLDKRDYV
modifications: biotin (NHS-PEG4-Biotin) on the N-terminal amine
For B4, the affinity in experiment [1], expressed as Kd, was 10.5 ± 0.2 nM.

B5: human claudin-3, biotinylated (hsCLDN-3-Biotin) (natural protein)
chain: MSMGLEITGTALAVLGWLGTIVCCALPMWRVSAFIGSNIITSQNIWEGLWMNCVVQSTGQMQCKVYDSLLALPQDLQAARALIVVAILLAAFGLLVALVGAQCTNCVQDDTAKAKITIVAGVLFLLAALLTLVPVSWSANTIIRDFYNPVVPEAQKREMGAGLYVGWAAAALQLLGGALLCCSCPPREKKYTATKVVYSAPRSTGPGASLGTGYDRKDYV
modifications: biotin (NHS-PEG4-Biotin) on the N-terminal amine
In experiment [1], B5 showed a Kd of 77.6 ± 0.9 nM.

B6: mouse claudin-4, biotinylated (mmCLDN-4-Biotin) (natural protein)
chain: MASMGLQVLGISLAVLGWLGIILSCALPMWRVTAFIGSNIVTAQTSWEGLWMNCVVQSTGQMQCKMYDSMLALPQDLQAARALMVISIIVGALGMLLSVVGGKCTNCMEDETVKAKIMITAGAVFIVASMLIMVPVSWTAHNVIRDFYNPMVASGQKREMGASLYVGWAASGLLLLGGGLLCCSCPPRSNDKPYSAKYSAARSVPASNYV
modifications: biotin (NHS-PEG4-Biotin) on the N-terminal amine
On to B6, for which the Kd in experiment [1] came to 17.9 ± 0.2 nM.

B7: COP-3 (antibody, V domains shown)
VH: EVQLVESGGGLVQPGGSLRLSCAASGFNFYSSSIHWVRQAPGKGLEWVAYISSYSGYTYYADSVKGRFTISADTSKNTAYLQMNSLRAEDTAVYYCARGYGYFDYNFSVGYALDYWGQGTLVTVSS
VL: DIQMTQSPSSLSASVGDRVTITCRASQSVSSAVAWYQQKPGKAPKLLIYSASSLYSGVPSRFSGSRSGTDFTLTISSLQPEDFATYYCQQSHPWYYPITFGQGTKVEIK
Regarding B7, the binding result in experiment [5] and in experiment [6] was “binds” throughout.
